The source of these data is publication PMC6408234.

Assay [1] addresses C-C-locked R4-MHC (disulfide-bond-locked MHC mutant) (mouse | human). Briefly: biomembrane force probe.
The target in assay [2] is 9C-HLA-A2 (NY-ESO-1 157-165 peptide … on HLA-A*02:01 with human β2m). The assay can be described thus: biomembrane force probe.

Turning to 2C TCR (wild type), the fold reduction of the optimal bond lifetime against R4-MHC in assay [1] is 2 fold.
With 1G4 TCR, in assay [2], the peak bond lifetime (at ~10 pN force) came out at 1 s.
